According to patent US20040038293A1 (Novartis, published 2004):

What was measured:
[1] = target: T1, recombinant soluble human CD154 (extracellular portion of human CD154 fused to mouse Cκ), trimeric (human; mouse, UniProt P29965 47-261); assay: cell-based or functional assay
T1 sequence (looked up): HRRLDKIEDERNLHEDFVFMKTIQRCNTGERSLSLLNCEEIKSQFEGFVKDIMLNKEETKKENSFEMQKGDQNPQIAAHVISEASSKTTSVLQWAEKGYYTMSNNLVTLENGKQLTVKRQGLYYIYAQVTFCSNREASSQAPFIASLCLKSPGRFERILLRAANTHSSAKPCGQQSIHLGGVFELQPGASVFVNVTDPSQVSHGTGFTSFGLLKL

[2] = target: T1, recombinant soluble human CD154 …; assay: cell-free competitive binding assay: CD154-κ immobilised, biotinylated soluble human CD40, Eu-streptavidin fluorimetry
Method: The ability to inhibit the binding of CD154 to CD40 is tested in a cell-free competitive binding assay. Recombinant soluble human CD154 (i.e., the extracellular portion of human CD154 fused to mouse Cκ) is immobilized on microtiter plates and the plates incubated, in the presence or absence of a putative inhibitor, with biotinylated recombinant soluble human CD40. The fraction of CD40 bound to CD154 is fluorimetrically determined using Eu-labelled streptavidin as the detection reagent.

[3] = target: T1, recombinant soluble human CD154 …; assay: SPR (BIAcore), ABI793 immobilised, CD154-κ 10 to 160 nM in solution, n = 3
Method: The association and dissociation rate constant for the binding of recombinant human CD154 to ABI793 is determined by BIAcore analysis. ABI793 is immobilized, and binding of soluble recombinant CD154 (CD154-κ) in a concentration range from 10 to 160 nM is measured by surface plasmon resonance. The chosen format represents a monovalent interaction. Data analysis is performed using the BIA evaluation software.

B1: ABI793 antibody (human anti-human CD154 monoclonal antibody from hybridoma # 207.2) (antibody, V domains shown)
VH: QVQLVQSGAEVQKPGSSVKVSCKASGGTFSNFAFNWVRQVPGQGLEWMGRILPSLDIASYAQKFQDRVTITADKSTSTAYMELSSLRSEDTAMYYCAREVDGGGFDYWGQGTLVTVSS
VL: DIQMTQSPSSLSASVGDRVTITCRASQGISSWLAWYQQKPEKAPKSLIYAASSLQSGVPSRFSGSGSGTDFTLTISSLQPEDFATYYCQQYNSYPFTFGGGTKVEIK
notes: FTC-labelled in part of the flow cytometry experiments; also called Antibody of the Invention
Inhibition of CD154/IL-4 driven B Cell Proliferation (3H-TdR uptake), IC50 [1]: 0.073 µg/mL | IC50 [2]: 0.075 µg/mL | Kd [3]: 23.1 nM | koff [3]: 0.000538 s⁻¹ | kon [3]: 23400 M⁻¹ s⁻¹
